# Experimental data published in US20190040102A1 (CDRD VENTURES, published 2019).
# Positions of bridges follow the written chain, without caps; N, C: chain ends. Non-standard residues stand in square brackets, D forms with d. *: point of attachment. dPhe(4-CONH2) = NC(=O)c1ccc(C[C@@H](N)C(=O)O)cc1; Phe(4-Cl) = N[C@@H](Cc1ccc(Cl)cc1)C(=O)O; Nicotinoyl = O=C(c1cccnc1)*
# Key:
# Experiment in all cases: cell-based or functional assay
# [1] = target: somatostatin receptor SSTR1 (UniProt P30872 1-391)
# Sequence of somatostatin receptor SSTR1 (P30872 whole entry): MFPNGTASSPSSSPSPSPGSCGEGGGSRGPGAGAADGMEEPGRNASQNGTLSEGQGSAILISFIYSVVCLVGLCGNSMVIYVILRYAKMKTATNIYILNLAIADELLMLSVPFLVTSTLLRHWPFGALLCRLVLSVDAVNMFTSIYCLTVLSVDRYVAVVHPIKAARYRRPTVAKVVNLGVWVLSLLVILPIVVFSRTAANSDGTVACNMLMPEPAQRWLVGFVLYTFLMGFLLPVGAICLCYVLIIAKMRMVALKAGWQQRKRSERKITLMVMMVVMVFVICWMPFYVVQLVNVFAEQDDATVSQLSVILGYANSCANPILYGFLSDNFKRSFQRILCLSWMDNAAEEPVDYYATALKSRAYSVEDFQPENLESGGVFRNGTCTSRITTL
# [2] = target: somatostatin receptor type 2 (SSTR2) (UniProt P30874 1-369)
# Sequence of somatostatin receptor type 2 (SSTR2) (P30874 whole entry): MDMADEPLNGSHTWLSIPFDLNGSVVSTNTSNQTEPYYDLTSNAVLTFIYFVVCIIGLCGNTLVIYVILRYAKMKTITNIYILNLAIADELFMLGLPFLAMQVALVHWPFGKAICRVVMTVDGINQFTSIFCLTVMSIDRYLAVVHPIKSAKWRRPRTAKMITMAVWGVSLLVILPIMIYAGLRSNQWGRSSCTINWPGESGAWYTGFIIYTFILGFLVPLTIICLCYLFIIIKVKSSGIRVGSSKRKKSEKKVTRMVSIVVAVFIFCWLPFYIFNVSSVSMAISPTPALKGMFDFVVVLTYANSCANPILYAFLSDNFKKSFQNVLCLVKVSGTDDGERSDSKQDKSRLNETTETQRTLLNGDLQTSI
# [3] = target: somatostatin receptor SSTR3 (UniProt P32745 1-418)
# Sequence of somatostatin receptor SSTR3 (P32745 whole entry): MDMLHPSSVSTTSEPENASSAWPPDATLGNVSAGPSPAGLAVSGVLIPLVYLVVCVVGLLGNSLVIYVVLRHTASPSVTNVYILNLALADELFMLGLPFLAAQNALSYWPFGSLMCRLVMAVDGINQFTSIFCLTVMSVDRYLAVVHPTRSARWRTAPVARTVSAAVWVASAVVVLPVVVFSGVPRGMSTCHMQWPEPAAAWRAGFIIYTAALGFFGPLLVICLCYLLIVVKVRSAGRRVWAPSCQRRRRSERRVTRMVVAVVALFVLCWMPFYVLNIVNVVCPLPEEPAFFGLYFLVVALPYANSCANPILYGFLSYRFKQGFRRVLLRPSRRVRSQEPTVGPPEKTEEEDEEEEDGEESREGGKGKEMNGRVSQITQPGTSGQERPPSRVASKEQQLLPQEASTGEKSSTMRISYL
# [4] = target: somatostatin receptor SSTR4 (UniProt P31391 1-388)
# Sequence of somatostatin receptor SSTR4 (P31391 whole entry): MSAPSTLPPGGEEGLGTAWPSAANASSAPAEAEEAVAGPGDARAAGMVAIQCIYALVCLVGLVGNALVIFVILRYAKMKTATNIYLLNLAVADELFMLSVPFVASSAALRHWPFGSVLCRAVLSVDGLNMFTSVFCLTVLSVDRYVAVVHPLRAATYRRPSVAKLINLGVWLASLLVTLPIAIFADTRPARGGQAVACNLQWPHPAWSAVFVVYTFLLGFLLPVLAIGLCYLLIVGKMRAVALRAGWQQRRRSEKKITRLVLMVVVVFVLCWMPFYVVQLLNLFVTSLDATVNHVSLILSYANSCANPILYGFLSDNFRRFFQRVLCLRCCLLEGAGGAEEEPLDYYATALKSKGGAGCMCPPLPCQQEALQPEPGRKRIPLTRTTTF
# [5] = target: somatostatin receptor SSTR5 (UniProt P35346 1-364)
# Sequence of somatostatin receptor SSTR5 (P35346 whole entry): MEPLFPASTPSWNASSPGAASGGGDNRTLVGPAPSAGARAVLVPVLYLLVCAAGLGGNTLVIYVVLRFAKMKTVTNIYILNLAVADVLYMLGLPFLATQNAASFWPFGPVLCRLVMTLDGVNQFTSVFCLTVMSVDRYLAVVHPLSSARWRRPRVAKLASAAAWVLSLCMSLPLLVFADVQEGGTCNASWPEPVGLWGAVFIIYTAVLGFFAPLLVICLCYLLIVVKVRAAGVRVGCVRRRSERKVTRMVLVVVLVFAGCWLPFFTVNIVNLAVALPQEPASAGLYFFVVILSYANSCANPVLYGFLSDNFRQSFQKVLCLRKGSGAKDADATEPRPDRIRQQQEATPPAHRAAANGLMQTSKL
"IC50 (PathHunter β-Arrestin, antagonist mode) [1]","IC50 (PathHunter β-Arrestin, antagonist mode) [2]","IC50 (PathHunter β-Arrestin, antagonist mode) [3]","IC50 (PathHunter β-Arrestin, antagonist mode) [4]","IC50 (PathHunter β-Arrestin, antagonist mode) [5]",Binder
> 1000 nM,31 nM,> 1000 nM,> 1000 nM,> 1000 nM,"XXYXKTCX (HELM PEPTIDE1{[N[C@@H](Cc1ccc(Cl)cc1)C(=O)[*:2]].[dC].Y.[NC(=O)NCc1ccc(C[C@@H](N[*:1])C(=O)[*:2])cc1].K.T.C.[dY].[am]}$PEPTIDE1,PEPTIDE1,2:R3-7:R3$$$V2.0; SMILES C[C@@H](O)[C@@H]1NC(=O)[C@H](CCCCN)NC(=O)[C@@H](Cc2ccc(CNC(N)=O)cc2)NC(=O)[C@H](Cc2ccc(O)cc2)NC(=O)[C@H](NC(=O)[C@@H](N)Cc2ccc(Cl)cc2)CSSC[C@@H](C(=O)N[C@H](Cc2ccc(O)cc2)C(N)=O)NC1=O) [Compound 7: H-Cpa-cyclo[DCys-Tyr-D-(4-ureidomethyl)Phe-Lys-Thr-Cys]-DTyr-NH2]"
,251 nM,> 1000 nM,,,H-[Phe(4-Cl)][dC]Y[dK](Nicotinoyl)KTC[dY]-NH2 (disulfide 2-7; SMILES C[C@@H](O)[C@@H]1NC(=O)[C@H](CCCCN)NC(=O)[C@@H](CCCCNC(=O)c2cccnc2)NC(=O)[C@H](Cc2ccc(O)cc2)NC(=O)[C@H](NC(=O)[C@@H](N)Cc2ccc(Cl)cc2)CSSC[C@@H](C(=O)N[C@H](Cc2ccc(O)cc2)C(N)=O)NC1=O) [Compound 3: H-Cpa-cyclo[DCys-Tyr-D-(Nε-nicotinoyl)Lys-Lys-Thr-Cys]-DTyr-NH2]

# Continued, binder first:
Binder,"IC50 (PathHunter β-Arrestin, antagonist mode) [1]","IC50 (PathHunter β-Arrestin, antagonist mode) [2]","IC50 (PathHunter β-Arrestin, antagonist mode) [3]","IC50 (PathHunter β-Arrestin, antagonist mode) [4]","IC50 (PathHunter β-Arrestin, antagonist mode) [5]"
"XXYXKTCX (HELM PEPTIDE1{[N[C@@H](Cc1ccc(Cl)cc1)C(=O)[*:2]].[dC].Y.[NC(=O)NCCC[C@@H](N[*:1])C(=O)[*:2]].K.T.C.[dY].[am]}$PEPTIDE1,PEPTIDE1,2:R3-7:R3$$$V2.0; SMILES C[C@@H](O)[C@@H]1NC(=O)[C@H](CCCCN)NC(=O)[C@@H](CCCNC(N)=O)NC(=O)[C@H](Cc2ccc(O)cc2)NC(=O)[C@H](NC(=O)[C@@H](N)Cc2ccc(Cl)cc2)CSSC[C@@H](C(=O)N[C@H](Cc2ccc(O)cc2)C(N)=O)NC1=O) [Compound 1: H-Cpa-cyclo[D-Cys-Tyr-D-Cit-Lys-Thr-Cys]-D-Tyr-NH2]",> 1000 nM,34 nM,> 1000 nM,> 1000 nM,> 1000 nM
"XXYXKTCX (HELM PEPTIDE1{[N[C@@H](Cc1ccc(Cl)cc1)C(=O)[*:2]].[dC].Y.[CCCCCNc1ccc(C[C@@H](N[*:1])C(=O)[*:2])cc1].K.T.C.[dY].[am]}$PEPTIDE1,PEPTIDE1,2:R3-7:R3$$$V2.0; SMILES CCCCCNc1ccc(C[C@H]2NC(=O)[C@H](Cc3ccc(O)cc3)NC(=O)[C@H](NC(=O)[C@@H](N)Cc3ccc(Cl)cc3)CSSC[C@@H](C(=O)N[C@H](Cc3ccc(O)cc3)C(N)=O)NC(=O)[C@H]([C@@H](C)O)NC(=O)[C@H](CCCCN)NC2=O)cc1) [Compound 12: H-Cpa-cyclo[D-Cys-Tyr-D-Phe(4-n-pentylamino)-Lys-Thr-Cys]-D-Tyr-NH2]",> 1000 nM,17 nM,> 1000 nM,> 1000 nM,> 1000 nM
"XXYXKTCX (HELM PEPTIDE1{[N[C@@H](Cc1ccc(Cl)cc1)C(=O)[*:2]].[dC].Y.[O=C([C@@H](Cc1ccc(NS(=O)(=O)c2ccccc2)cc1)N[*:1])[*:2]].K.T.C.[dY].[am]}$PEPTIDE1,PEPTIDE1,2:R3-7:R3$$$V2.0; SMILES C[C@@H](O)[C@@H]1NC(=O)[C@H](CCCCN)NC(=O)[C@@H](Cc2ccc(NS(=O)(=O)c3ccccc3)cc2)NC(=O)[C@H](Cc2ccc(O)cc2)NC(=O)[C@H](NC(=O)[C@@H](N)Cc2ccc(Cl)cc2)CSSC[C@@H](C(=O)N[C@H](Cc2ccc(O)cc2)C(N)=O)NC1=O) [Compound 14: H-Cpa-cyclo[DCys-Tyr-D-4-(benzenesulfonyl)Aph-Lys-Thr-Cys]-DTyr-NH2]",> 1000 nM,21 nM,> 1000 nM,> 1000 nM,> 1000 nM
H-[Phe(4-Cl)][dC]Y[dPhe(4-CONH2)]K(Me)TC[dY]-NH2 (disulfide 2-7; SMILES CNCCCC[C@@H]1NC(=O)[C@@H](Cc2ccc(C(N)=O)cc2)NC(=O)[C@H](Cc2ccc(O)cc2)NC(=O)[C@H](NC(=O)[C@@H](N)Cc2ccc(Cl)cc2)CSSC[C@@H](C(=O)N[C@H](Cc2ccc(O)cc2)C(N)=O)NC(=O)[C@H]([C@@H](C)O)NC1=O) [Compound 24: H-Cpa-cyclo[D-Cys-Tyr-D-Phe(4-carbamoyl)-Lys(Nε-Me)-Thr-Cys]-D-Tyr-NH2],> 1000 nM,0.96 nM,> 1000 nM,> 1000 nM,> 1000 nM
"XXYXKTCX (HELM PEPTIDE1{[N[C@@H](Cc1ccc(Cl)cc1)C(=O)[*:2]].[dC].Y.[O=C(Nc1ccccc1)Nc1ccc(C[C@@H](N[*:1])C(=O)[*:2])cc1].K.T.C.[dY].[am]}$PEPTIDE1,PEPTIDE1,2:R3-7:R3$$$V2.0; SMILES C[C@@H](O)[C@@H]1NC(=O)[C@H](CCCCN)NC(=O)[C@@H](Cc2ccc(NC(=O)Nc3ccccc3)cc2)NC(=O)[C@H](Cc2ccc(O)cc2)NC(=O)[C@H](NC(=O)[C@@H](N)Cc2ccc(Cl)cc2)CSSC[C@@H](C(=O)N[C@H](Cc2ccc(O)cc2)C(N)=O)NC1=O) [Compound 15: H-Cpa-cyclo[D-Cys-Tyr-D-Phe(4-phenylureido)-Lys-Thr-Cys]-D-Tyr-NH2]",> 1000 nM,1 nM,> 1000 nM,> 1000 nM,> 1000 nM
"XXYXKTCX (HELM PEPTIDE1{[N[C@@H](Cc1ccc(Cl)cc1)C(=O)[*:2]].[dC].Y.[NC(=O)c1ccc(C[C@@H](N[*:1])C(=O)[*:2])cc1].K.T.C.[dY].[am]}$PEPTIDE1,PEPTIDE1,2:R3-7:R3$$$V2.0; SMILES C[C@@H](O)[C@@H]1NC(=O)[C@H](CCCCN)NC(=O)[C@@H](Cc2ccc(C(N)=O)cc2)NC(=O)[C@H](Cc2ccc(O)cc2)NC(=O)[C@H](NC(=O)[C@@H](N)Cc2ccc(Cl)cc2)CSSC[C@@H](C(=O)N[C@H](Cc2ccc(O)cc2)C(N)=O)NC1=O) [Compound 4: H-Cpa-cyclo[DCys-Tyr-D-(4-carbamoyl)Phe-Lys-Thr-Cys]-DTyr-NH2]",> 1000 nM,17 nM,> 1000 nM,> 1000 nM,> 1000 nM
